For series [1], the target named is insulin (bovine pancreas) (Bos taurus, UniProt P01317;P01317 25-54;85-105). As to the kind of experiment: electrochemical aptamer-based sensor.
Another series concerns the target glucagon (UniProt P01275 53-81). As to the kind of experiment: electrochemical aptamer-based sensor.

Usually Kd stands for the concentration at which binding is half-saturated.

Chain of glucagon (P01275 53-81): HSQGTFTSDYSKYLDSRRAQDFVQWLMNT
Chain of insulin (bovine pancreas) (P01317 25-54, chain 1 of 2): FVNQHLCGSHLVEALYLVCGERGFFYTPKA
Chain of insulin (bovine pancreas) (P01317 85-105, chain 2 of 2): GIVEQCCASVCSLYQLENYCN

AAAAGGTGGTGGGGGGGGTTGGTAGGGTGTCTTCT (structured_DNA, 5' thiol-C6 (immobilised on gold); 3' methylene blue) [Insulin-End (IGA3)] registered a Kd in series [1] of 240 ± 65 nM. For the same molecule, the binding result with glucagon is listed as “no binding”.
